Reference: the DeepSol protein solubility set

Experiment: soluble on expression in E. coli; label from the status in PepcDB or PDB records
With “SASNYPAYMDNYLKEVINQVEEETGYNLLTTGMDVYTNVDQEAQKHLWDIYNTDEYVAYPDDELQVASTIVDVSNGKVIAQLGARHQSSNVSFGINQAVETNRDWGSTMKPITDYAPALEYGVYDSTATIVHDEPYNYPGTNTPVYNWDRGYFGNITLQYALQQSRNVPAVETLNKVGLNRAKTFLNGLGIDYPSIHYSNAISSNTTESDKKYGASSEKMAAAYAAFANGGTYYKPMYIHKVVFSDGSEKEFSNVGTRAMKETTAYMMTDMMKTVLSYGTGQNAYLAWLPQAGKTGTSNYTDEEIENHIKTSQFVAPDELFAGYTRKYSMAVWTGYSNRLTPLVGNGLTVAAKVYRSMMTYLSEGSNPEDWNIPEGLYRNGEFVFKNGAR” the “soluble on expression in E. coli” value was “soluble”.
With “STARVICAGFGGQGVMSMGQLLTYAGMLEGKEVSWLPSYGPEMRGGTANCAVTVSNEPVGSPLITDDATAAILLNIPAFEKFKDDVIPGGKIIVNSSLIKEKVDRTDVDVYYIPANELAAELGNDKVANMIMLGAYLKVSDTVDIESVLEAFKKVFGPRKEKFVPLNREALQKGMDATC” the “soluble on expression in E. coli” value was “not soluble”.
For “MNKEQLQQMRQAPGFVGALDQSGGSTPKALKAYGIQPDAYQSEEEMFDLIHQMRTRMITSPAFATGKIIGVILFERTMRGKIEGMPTADFLWEKRHIVPFLKVDKGLQDEANGVQLMKPFPELGKLCEEAVGYHVFGTKMRSVIKQANEQGIRDIVEQQFQWGKEILSHGLVPILEPEVDIHCPEKAKAEEILKRELLAQLDKMTEPVMLKITIPTVDNFYKEIIEHPMMLRVVALSGGYSREQANELLSRNHGVIASFSRALVEGLSARQTDAEFNAMLEASIEDVYQASIK”, the “soluble on expression in E. coli” value was “soluble”.
With “GPLGSMPEVRFQQQLEQLNSMGFINREANLQALIATGGDINAAIERLLGSQLS” the “soluble on expression in E. coli” value was “soluble”.
With “MINDDILAHARQCAPAESCGYVVRTAQGERYFPCENLSAEPTMYFRISPEDYLNARNRGDIVALVHSHPDGKPCLSSADRTLQIQSGLDWWLVCDNRIHKFRCVPHLTGRQFEHGVTDCYTLFRDAYHLAGIDMPDFDREDDWWSQGKSLYLDHLEAAGFYRVNPEDAQPGDVLICCFGSPTPNHAAIYCGNGELLHHIPEQLSKREGYNDKWQRRTHSIWRHRQWCESAFTGIYNDLESASASA” the “soluble on expression in E. coli” value was “not soluble”.
For “MSLSNYWLGLDCGGSWLKAGLYDGAGREVAVQRLPLHALSPQPGWVERDMTELWQQCASVISKLLAHTGVSGSQIRGLGISAQGKGLFLLDKSDRPLGKAILSSDRRAMEIVQRWQKEAVPQKLYPLTRQTLWTGHPVSLLRWVKENEPQRYAQIGCVMMTHDYLRWCLTGVKGCEESNISESNLYNMATGQYDPRLTEWLGISEIDSALSPVVGSAEICGEITAQAAAITGLAAGTPVVGGLFDVVSTALCAGIEDESTLNAVMGTWAVTSGIAHGLRDHEAHPYVYGRYVNDGQYIVHEASPTSSGNLEWFTAQWGDLSFDEINQAVASLPKAGSDLFFLPFLYGSNAGLEMTCGFYGMQALHNRAHLLQALYEGVVFSHMTHLNRMRERFTEVCALRVTGGPAHSDVWMQMLADVSGLRIELPQVEETGCFGAALAARVGTGVYRDFREAQRDLQHPVRTLLPDMTAHALYQRKYRQYQDLIEALQGYHARIKEHALEGHHHHHH”, the “soluble on expression in E. coli” value was “soluble”.
For “METEAIDGYITCDNELSPEREHSNMAIDLTSSTPNGQHASPSHMTSTNSVKLEMQSDEECDRKPLSREDEIRGHDEGSSLEEPLIESSEVADNRKVQELQGEGGIRLPNGERPFHCNQCGASFTQKGNLLRHIKLHSGEKPFKCPFCSYACRRRDALTGHLRTHSVGKPHKCNYCGRSYKQRSSLEEHKERCHNYLQNVSMEAAGQVMSHHVPPMEDCKEQEPIMDNNISLVPFERPAVIEKLTGNMGKRKSSTPQKFVGEKLMRFSYPDIHFDMNLTYEKEAELMQSHMMDQAINNAITYLGAEALHPLMQHPPSTIAEVAPVISSAYSQVYHPNRIERPISRETADSHENNMDGPISLIRPKSRPQEREASPSNSCLDSTDSESSHDDHQSYQGHPALNPKRKQSPAYMKEDVKALDTTKAPKGSLKDIYKVFNGEGEQIRAFKCEHCRVLFLDHVMYTIHMGCHGYRDPLECNICGYRSQDRYEFSSHIVRGEHTFH”, the “soluble on expression in E. coli” value was “soluble”.
For “MGSDKIHHHHHHMTHDLLDLLRQWHQSPDEAWVLAVLTQVQGSSYRKPGAMMLFHPMGKSYGMLSGGCLEADLRRHAQQVIQSQCVAQVEYDASDESDSSYQLGCGGIVNIMLVTVTKANDYLGFNPLLAALARGDSVEYELSLPANASPCQQASAKLSIVPLSDNLTQAQLKGAHKAVTAYKHEVLTMRLAPPIALGIFGAGLDAQPVAAMAQQLGWQVSVFDERSAYGRLYDFPSVKVVKGPFDAIEPAILKRLDAAIVMSHNLNLDAKALSLLASLSQPHSHNNLAYLALLGPPQRRDRVLRIAGLELADIKCFFSAPAGLALGGELPSSVALSIVSQCHGVLHGSAIIALDEVMGCP”, the “soluble on expression in E. coli” value was “not soluble”.
For “MSLTTIKTSNLGFPRIDLNREWKKALEAYWKGSTDKDTFLKQIDELFLSAVKTQIDQQIDVVPVSDFTQYDHVLDTAVSFNWIPKRFRHLTDATDTYFAIARGIKDAVSSEMTKWFNTNYHYIVPEYDESIEFRLTRNKQLEDYRRIKQEYGVETKPVIVGPYTFVTLAKGYEPSEAKAIQKRLVPLYVQLLKELEEEGVKWVQIDEPALVTASSEDVRGAKELFESITSELSSLNVLLQTYFDSVDAYEELISYPVQGIGLDFVHDKGRNLEQLKTHGFPTDKVLAAGVIDGRNIWKADLEESLDAVLDVLSIAKVDELWIQPSSSLLDVPVAKHPDEHLEKDLLNGLSYAKEKLAELTALKEGLVSGKAAISEEIQQAKADIQALKQFATGANSEQKKELEQLTDKDFKRPIPFEERLALQNESLGLPLLPTTTIGSFPQSAEVRRARQKWRKAEWSDEQYQNFINAETKRWIDIQEELELDVLVHGEFERTDMVEYFGEKLAGFAFTKYAWVQSYGSRCVRPPVIYGDVEFIEPMTVKDTVYAQSLTSKHVKGMLTGPVTILNWSFPRNDISRKEIAFQIGLALRKEVKALEDAGIQIIQVDEPALREGLPLKTRDWDEYLTWAAEAFRLTTSSVKNETQIHTHMCYSNFEDIVDTINDLDADVITIEHSRSHGGFLDYLKNHPYLKGLGLGVYDIHSPRVPSTEEMYNIIVDALAVCPTDRFWVNPDCGLKTRQQEETVAALKNMVEAAKQARAQQTQLVEGGSHHHHHH”, the “soluble on expression in E. coli” value was “soluble”.
With “MGAEGRLYWDEGEGEGPYRLDRFRLLPAEGGFRLLWQGKGELPWPWARVRLRLFGKRLLRAHVEGEAHAAEEGGVLLPPFREALLEVEGLEHHHHHH” the “soluble on expression in E. coli” value was “not soluble”.
For “MGSDKIHHHHHHMPAILDLFNQKTVLDYVQNRQYPQLLGDTLFPSVKIDQLDFEYLRGGSKTPIIASVSAFDTEAEIGSREASVQAAELGYIKRKMQLKEKDLIALRNPRTPAEQNYLTSLVYNDLDVLVQGVYARVEKMRMEALATGTISIDENNMNFGVTYNVPAEHQVTAATSWDADGADPIKDLQDWFALLDYAPTRILTSSKVQTALIRSKAFADYFKTAGLLPSVGSLNAVLQSFGLPTIVTYDAKYRKQGANGIYTVERYFPEDTLVAFGDDQLGQTVYGPTPEESRLIATPGVQQGTVGNVFTTVYETTQDPIATWEKAAATALPSFPEAENVLQAKVLIPKP”, the “soluble on expression in E. coli” value was “not soluble”.
For “MGSDKIHHHHHHQIPREPITQQPMSAMPPMPPAMQAPGSIYNPGYAGRPLFEDQRPRNVGDILTIVIAENINATKSSGANTNRQGNTSFDVPTAGFLGGLFNKANLSAQGANKFAATGGASAANTFNGTITVTVTNVLPNGNLVVSGEKQMLINQGNEFVRFSGIVNPNTISGQNSVYSTQVADARIEYSAKGYINEAETMGWLQRFFLNIAPW”, the “soluble on expression in E. coli” value was “not soluble”.
With “MGSDKIHHHHHHVPSACRLSTCRFQDVCLSQIAAYWPARFTRTSEGVGKMAEMVTIKEADLIESVADALQYISYFHPMDYIRALGEAYKAEQGPAAKDAIAQILTNSRMCAEGHRPICQDTGIVNVFIEWGQDCRLESDLSLQDVVDEGVRRAYNNPDNKLRASVLADPAFTRRNTRDNTPCVLHVEMVKGNKVTVDVAAKGGGSENKSKFKMMNPSDSIVDWVIEMLPQMGAGWCPPGMLGIGIGGTAEHCVLLAKKALMEPIDMAQLKQRGPQTDIERLRIEIFDKVNALGIGAQGLGGLSTILDVKIMDAPCHAAGKPVAMIPNCAATRHAHFTLDGSGPTFLERPKLDEWPEVHWAPDSAARRVDLDTLTQEEVQSWKAGDRLLLNGKMLTGRDAAHKRIKDMLAKGEELPVDFKGRVIYYVGPVDPVRDEVVGPAGPTTATRMDSFSDTMLDLGLLASVGKAERGPAATQSIANHKSAYLMAVGGAAYLVARAIKEAKVVGFEDLGMEAIYEFTVEDMPVTVAVDSGGQNVHQLAPLVWKKKIAEEHLLPA” the “soluble on expression in E. coli” value was “not soluble”.
For “MSLGKGEKFQIEFVSANPTGDLHLGHARGAAIGDSLANIMKMAGFDVSREYYINDAGNQINNLVLSAEARYFEALGLDSEFPEDGYRGADIISLGKDLAAKYGDKYVHTSEEERRSVFRVDALAFETGKLRADLEEFRVSFDEWFSETSLYEENKVLPALERLRENGYIYEQDGATWLRTTDFEDDKDRVLIKSDGSYTYFLPDIAYHLNKLERGFDVLIDIWGADHHGYIPRMRAAIEALGYSPNQLEVEIIQLVHLFEDGVQVKMSKRTGKSVTMRDLIEEVGLDATRYFFAMRSSDTHMNFDMSLAKSTSNDNPVYYVQYAHARISSILRSGKEQGLEVTKDADMSLLQTEAEYDLLKVLGEFADVVAEAATKRAPHRIVRYLNDLASSFHRFYNSNKVLDMDNLEVTKARLALIKTAQITLRNGLTLLGVSAPEKEGHHHHHH”, the “soluble on expression in E. coli” value was “not soluble”.
In the case of “MDIDECESGAHQCSEAQTCVNFHGGYRCVDTNRCVEPYIQVSENRCLCPASNPLCRE”, the “soluble on expression in E. coli” value is reported as “soluble”.
With “MPKSDTKQKKRRSNKNRLRIKRARLFGPKDIDQVKEDIESQKKIEYDPELPGGGHFYCCECDRHFITEKVLMEHKRSNPHRRRAKEVREVAHSQRDAEWAVGLT” the “soluble on expression in E. coli” value was “not soluble”.
With “MSLQLRHNRTLLENLADRQTMALQQFVDGDIHFIGSAANFFRSSTSDDWVRFHTFAEETLKGSQSLIALQWLVKVEPPQAETFTARMQQRFPEFTLYTVPKTGEIKYGFGTDDQAKYVLSDIYPLNYDNRKLLGFYSERERFKRILADIVVNRRPNVSDKVRLLQDGIDKSIVKDGMLVYHPVFSSEDDRSLLGVMVGVVRLSTYFEKLVQISVMEQDLDMRVIDTGFDSEDSPVLYQSPMWRADDEPKIERKLVLPNRDWVLEFELHQPINHSEELEHHHHHH” the “soluble on expression in E. coli” value was “soluble”.
With “SQPIATQELQLGDELANKAFAATNRGDFVAAEDYWTQIIEKFPINAGAWINRGNSRVSQNKLEAALTDYNKAIELAPNLTDPYLNRGTALEGLGKWEDAIADYNYVLALDPNDAMAYNNRGNAKTGLGKWEDAISDYQKATAIAPNFAFARANYALALYETGQTDKAIREMRNIVRKYPKFADMRAALTAAYWVGGQKGEAESNWVAAYGLDTRYKDMDWVTNIRRWPPSMVAALDKFLKLN” the “soluble on expression in E. coli” value was “soluble”.
In the case of “MKLLHAIQTHAETYPQTDAFRSQGQSLTYQELWEQSDRAAAAIQKRISGEKKSPILVYGHMEPHMIVSFLGSVKAGHPYIPVDLSIPSERIAKIIESSGAELLIHAAGLSIDAVGQQIQTVSAEELLENEGGSVSQDQWVKEHETFYIIYTSGSTGNPKGVQISAANLQSFTDWICADFPVSGGKIFLNQAPFSFDLSVMDLYPCLQSGGTLHCVTKDAVNKPKVLFEELKKSGLNVWTSTPSFVQMCLMDPGFSQDLLPHADTFMFCGEVLPVSVAKALLERFPKAKIFNTYGPTEATVAVTSVEITNDVISRSESLPVGFAKPDMNIFIMDEEGQPLPEGEKGEIVIAGPSVSRGYLGEPELTEKAFFSHEGQWAYRTGDAGFIQDGQIFCQGRLDFQIKLHGYRMELEEIEFHVRQSQYVRSAVVIPYQPNGTVEYLIAAIVPEEHEFEKEFQLTSAIKKELAASLPAYMIPRKFIYQDHIQMTANGKIDRKRIGEEVLVRSHHHHHH”, the “soluble on expression in E. coli” value is reported as “soluble”.
